From publication PMC11094772 come the findings set out here.

Assay in all cases: BLI
(BLI is a label-free optical method that tracks binding on a fibre tip over time.)

Experiment [1] addresses KRAS4B (residues 1-185, C118S) tethered to nanodiscs (UniProt P01116).
Experiment [2] shares this target. The source holds these as a separate data set.
The target is the same in experiment [3]. This is another data set of the same source.
For experiment [4] the target is unchanged. The source holds these as a separate data set.

Like-named read-outs stand apart in the source and are kept apart here.

Consider “tagless dimeric BRAF(S365A):14-3-3 complex (MBP removed by TEV protease) (from UniProt P15056 1-766)”, for which the Kd in experiment [1] came out at 25.5 nM.

The substance “tagless monomeric BRAF(WT):14-3-3 complex (MBP removed by TEV protease) (from UniProt P15056 1-766)” displayed a Kd in experiment [1] of 35.5 nM.

For “M-BRAF: monomeric MBP-BRAF(WT):14-3-3 complex (1 MBP-BRAF: 2 14-3-3) (from UniProt P15056 1-766)”, the Kd in experiment [1] was 177 nM; in experiment [2], 93.3 nM; in experiment [3] it was 65.5 nM; in experiment [4], 68.2 nM. The off-rate constant (koff) amounted to 0.00372 s⁻¹ in experiment [1], 0.00235 s⁻¹ in experiment [2], 0.00266 s⁻¹ in experiment [3] and 0.0016 s⁻¹ in experiment [4]. Also, the kon in experiment [1] was 21100 M⁻¹ s⁻¹; in experiment [2] it was 25400 M⁻¹ s⁻¹; in experiment [3], 44200 M⁻¹ s⁻¹; in experiment [4], 24000 M⁻¹ s⁻¹.

Regarding “D-BRAF: dimeric MBP-BRAF(S365A):14-3-3 complex (2 MBP-BRAF: 2 14-3-3) (from UniProt P15056 1-766)”, the Kd in experiment [1] was found to be 57.4 nM; in experiment [2] it was 28.6 nM; in experiment [3], 29.1 nM; in experiment [4], 18.5 nM. In addition, the koff in experiment [1] was 0.00395 s⁻¹; in experiment [2] it was 0.00269 s⁻¹; in experiment [3] it was 0.0034 s⁻¹; in experiment [4], 0.00185 s⁻¹. In addition, the kon was 69000 M⁻¹ s⁻¹ in experiment [1], 94100 M⁻¹ s⁻¹ in experiment [2], 106000 M⁻¹ s⁻¹ in experiment [3] and 105000 M⁻¹ s⁻¹ in experiment [4].

In general, Kd refers to the equilibrium constant for the complex coming apart. Low values mean a tighter complex, high ones a looser complex. Broadly, the koff is a measure of how fast the partners let go of each other. Lower therefore signals slow dissociation. Usually kon stands for the second-order rate constant of association. A higher kon goes with faster complex formation.
